In patent US20170087188A1, “WNT INDUCED MOTILITY AND ENHANCED ENGRAFTMENT OF CELLS” (OTTAWA HOSPITAL RESEARCH INSTITUTE, priority 2014, published 2017):

Assays:
Fzd7-YFP (CMV-Fzd7-EYFP) = assay: cell-based or functional assay
[1] = molecular target: Fzd7 (endogenous, mouse myogenic cells) (mouse) (UniProt Q61090); assay: cell-based or functional assay

cell polarization of Fzd7-YFP expressing C2C12 cells (Fzd7-YFP (CMV-Fzd7-EYFP)): 167 % increase
abundance of triangular polarized C2C12 cells [1]: 111 % increase
directional persistence of satellite cells on single myofibers (time lapse imaging) [1]: 36 % higher
mean velocity of satellite cells on single myofibers (time lapse imaging) [1]: 31 % increase
migration of C2C12 cells in scratch assay [1]: 443 % increase
migration of satellite cell derived mouse primary myoblasts in scratch assay [1]: 136 % increase
Substance: Wnt7a (R&D Systems) (ligand)
